Substrate: C#CCCCCC(=O)O
Experiment: purified protein
Format: biochemical, Synechocystis salina
Conditions: co-substrate bartoloside G (5) 100 μM, 20 mM HEPES, 50 mM NaCl, 10 mM MgCl2, 5 mM CaCl2, pH 8.0, 37 °C, standard error, n = 3

B1: NStrep-BrtB (Synechocystis salina LEGE 06099) (protein)
chain: MANPFDVALTNLNSLYSGIPDVPVLQTYNSLNPYDISLTNLNNLSNFVIEPAVLPTAAGTYGPQISEIAFALGGGIITGALADLLSTELGIEIENEALITKFLSFWTPGSDYAFGQDYVEFIQGREGFDTIIGYDPGFNSALAPVQIDFVLGGPRQDFNFFAPLDEPARYVLGDWRTPYYVDNDIQSEGLNEFMYVSLFTLNPDEFSPDNAENHRIQLYGSLDNYYFVPTTVVIDGSALDPSLPSIPVPGTEIYYKTGQVFADLIAIVPFQDPNDPNLISAWIDFEGYLPPEQADLSGQTANPLLSGSPLLQLGYEGIDMGTATALAPDGDIYVAGSTSSLLGPFPRGGSDNFIARYNDDGSLEWIVQFGSTEFDIITDIVSDSAGNVYATGWTRGNVETGFGLAPGVQDNWVAKFDANGSQLWVEQFTIDGYLDRSMGIALDEVNGRIHLTGHSNTDGSVADTNDPAIVPNGNVVTWIAGFDANTGAEDYRNVFEVAQTSNSRGRIDEGFGIDVDDAGNVFSTGWAGENAYDVYLVKSDTDGAVLWTKSFGTGSNATQSYAWDVASDGTNAYILGWTQGELNTFRDQIPPTDEFAGNATAPLTPQNAYQGGTFDAFVAAYDTDGTELWTWHVGGTGDDGTFFGKIVAAGDFVYATGYTDGFIGTLGGSNAGDYDAWIGKFDKLTGQTAWIQQIGSTKLDYATGISVDGDDIFVTGFTEGSLGGLNGGASDAWVAKLNQDGALEAFNVSAPIAPPAPFAPPAPLTPPAPPAPDLSSLQSLGSTPQPTYPALGDSYGTNPFGTQPTQPTYDLSSMYQNAYYGGFGGYSGYGY
notes: N-terminal Strep-Tag, pET-51b, E. coli BL21 (DE3) Rosetta; cloning primers imply N-terminus MANPF and C-terminus GYGY; two protein preparations pooled 1:1
B1 gave a Km of 234 ± 41 µM.
